Data on 24 molecules can be found in patent publication US20110053831A1.

First the molecules themselves.
B1: SEQ ID NO 72 (peptide)
peptide: RSDYKDDDDKAYQSIIGAGKSTLIKALTGVYHADRGTIWLEGQAISPKNTAHAQQCRRRPCSLTWYQLMHRYRY
B2: SEQ ID NO 66 (peptide)
peptide: RSDYKDDDDKAYQSIMAVAAQQPVAFLVGRQRRRGQVGIDSGDQHLRTPLFHELCRRRPCSLAWYQLMHRYRY
B3: SEQ ID NO 34 (peptide)
peptide: RSDYKDDDDKTYQSIKGPENKVKMYFLNDLNFSRRDAGFKARKDALDIASDYENISVVNIPLWGGVVQRIISSVKLSTFLCGLENKDVLIFNFPMAKPFWHILSFFHRLLKFRIVLLIDDKPCRRRPCSLTWYQLMHRYRY
B4: SEQ ID NO 64 (peptide)
peptide: RSDYKDDDDKAYQSISLAGYHGDTSRTFLVGSVSATARKLVEATQETMIDYTCRRRPCSLTWYQLMHRYRY
B5: SEQ ID NO 44 (peptide)
peptide: RSDYKDDDDKKDSIRRRGENISSQEVEAVLMSHPEVVNAAVYPVRGDLPGD
B6: SEQ ID NO 50 (peptide)
peptide: B5 peptide

Where only a bound is given, the exact number is not on record here.

The test deals with JUN1 fragment of c-Jun (UniProt P05412). Description: cell-based or functional assay.
Regarding RSDYKDDDDKAYQSKRL [SEQ ID NO 28], the decrease in growth of yeast on HTU media (reverse two-hybrid) was greater than 50%. Under B1 stands greater than 50%.

As for RSDYKDDDDKAYQSIIH [SEQ ID NO 36], the decrease in growth of yeast on HTU media (reverse two-hybrid) is greater than 50%.

In turn, RSDYKDDDDKAYQSISVVVVLVV [SEQ ID NO 68] displayed a decrease in growth of yeast on HTU media (reverse two-hybrid) greater than 50%. Under RSDYKDDDDKLINQSYAYPYIY [SEQ ID NO 38] stands greater than 50%; under RSDYKDDDDKAYQSISFLSQ [SEQ ID NO 48], greater than 50%.

In turn, RSDYKDDDDKIIIYIFLNISNSIKNIFDNMGKIR [SEQ ID NO 42] returned a decrease in growth of yeast on HTU media (reverse two-hybrid) greater than 50%. In turn, RSDYKDDDDKIYSSILWGTKWCVLLVITP [SEQ ID NO 40] returned a decrease in growth of yeast on HTU media (reverse two-hybrid) greater than 50%. Consider B2, for which the decrease in growth of yeast on HTU media (reverse two-hybrid) is greater than 50%. Turning to RSDYKDDDDKAYQSINSSPVLPENSQELSLHLKQHVTKS [SEQ ID NO 54], the decrease in growth of yeast on HTU media (reverse two-hybrid) is greater than 50%. Under RSDYKDDDDKGLQGRRQPGQQPQGRWSGRALPAHR [SEQ ID NO 60] stands greater than 50%; under RSDYKDDDDKGLQGRRQPGQQPQGRWSGRALPAHR [SEQ ID NO 62], greater than 50%; under B3, greater than 50%. As for RSDYKDDDDKAYQESTKALVEGGADLILIETVLVVVVLVV [SEQ ID NO 32], the figure is greater than 50%. Consider RSDYKDDDDKLYQSLLTATKELLFVAPVAKAFTSCD [SEQ ID NO 46], for which the decrease in growth of yeast on HTU media (reverse two-hybrid) is greater than 50%. As for B4, the figure is greater than 50%; as for RSDYKDDDDKGLQGRRRQGYQSIKP [SEQ ID NO 58], greater than 50%.

In turn, RSDYKDDDDNTPHSSDGHNNP [SEQ ID NO 52] showed a decrease in growth of yeast on HTU media (reverse two-hybrid) greater than 50%.

In turn, B5 yielded a decrease in growth of yeast on HTU media (reverse two-hybrid) greater than 50%. As for B6, the figure is greater than 50%; as for RSDYKDDDDKAYQSIIANEEEREKNFASSKKDGSYTDLL [SEQ ID NO 30], greater than 50%. As for RSDYKDDDDKAYQSM [SEQ ID NO 26], the figure is greater than 50%; as for RSDYKDDDDKANQLPKILAGRLIFIKC [SEQ ID NO 70], greater than 50%; as for RSDYKDDDDKAYQSIRSGGIESSSKRER [SEQ ID NO 56], greater than 50%.
